From paper PMC4273445 (eLife, 2014)

How the values were obtained:
Assay in all cases: SPR
[1] = biological target: fHbp V2.21 Thr (at V1 Glu304) to Ala (N. meningitidis)
[2] = biological target: fHbp V2.21 Arg (at V1 Arg106) to Ala (N. meningitidis)
[3] = biological target: fHbp 2.P22 (N. meningitidis) (UniProt E6MV22)
[4] = biological target: fHbp V3.28 Val (at V1 Ile311) to Ala (N. meningitidis)
[5] = biological target: fHbp V3.28 Gln (at V1 Arg145) to Ala (N. meningitidis)
[6] = biological target: fHbp V3.28 Asn (at V1 Asn108) to Ala (N. meningitidis)
[7] = biological target: fHbp V3.28 Ile (at V1 Ile179) to Ala (N. meningitidis)
[8] = biological target: fHbp V3.28 Pro (at V1 Ser182) to Ala (N. meningitidis)
[9] = biological target: fHbp V3.28 His (at V1 Ser288) to Ala (N. meningitidis)
[10] = biological target: fHbp V1.1 Leu156 to Ala (N. meningitidis)
[11] = biological target: fHbp V2.21 Leu (at V1 Ser274) to Ala (N. meningitidis)
[12] = biological target: fHbp V2.21 Asn (at V1 Asn108) to Ala (N. meningitidis)
[13] = biological target: fHbp 3.P47 (N. meningitidis) (UniProt E6MV22)
[14] = biological target: fHbp V3.28 Ser (at V1 Gln193) to Ala (N. meningitidis)
[15] = biological target: fHbp V3.28 Ala (at V1 Glu157) to Glu (N. meningitidis)
[16] = biological target: fHbp V3.28 His (at V1 His203) to Ala (N. meningitidis)
[17] = biological target: fHbp 1.P9 (N. meningitidis) (UniProt E6MV22)
[18] = biological target: fHbp V3.28 Ile (at V1 Ile147) to Ala (N. meningitidis)
[19] = biological target: fHbp V2.21 Ile (at V1 Ile147) to Ala (N. meningitidis)
[20] = biological target: fHbp V3.28 Asp (at V1 Glu183) to Ala (N. meningitidis)
[21] = biological target: fHbp V2.21 Glu (at V1 Gly267) to Ala (N. meningitidis)
[22] = biological target: fHbp V1.1 Val149 to Ala (N. meningitidis)
[23] = biological target: fHbp V3.28 Ile (at V1 Ile273) to Ala (N. meningitidis)
[24] = biological target: fHbp V2.21 Asp (at V1 Glu183) to Ala (N. meningitidis)
[25] = biological target: fHbp V3.28 Lys (at V1 Lys92) to Ala (N. meningitidis)
[26] = biological target: fHbp V1.1 Ile179 to Ala (N. meningitidis)
[27] = biological target: fHbp 1.P61 (N. meningitidis) (UniProt E6MV22)
[28] = biological target: fHbp V3.28 Lys (at V1 Lys264) to Ala (N. meningitidis)
[29] = biological target: fHbp V1.1 Ser274 to Ala (N. meningitidis)
[30] = biological target: fHbp V3.28 Asn (at V1 Gln180) to Ala (N. meningitidis)
[31] = biological target: fHbp V2.21 Ile (at V1 Ile273) to Ala (N. meningitidis)
[32] = biological target: fHbp 2.P23 (N. meningitidis) (UniProt E6MV22)
[33] = biological target: fHbp V1.1 Leu171 to Ala (N. meningitidis)
[34] = biological target: fHbp V1.1 Phe194 to Ala (N. meningitidis)
[35] = biological target: fHbp 1.P78 (N. meningitidis) (UniProt E6MV22)
[36] = biological target: fHbp V1.1 Asp266 to Ala (N. meningitidis)
[37] = biological target: fHbp V3.28 Glu (at V1 Gly267) to Ala (N. meningitidis)
[38] = biological target: fHbp V1.1 Ser185 to Ala (N. meningitidis)
[39] = biological target: fHbp 1.P13 (N. meningitidis) (UniProt E6MV22)
[40] = biological target: fHbp V2.21 Pro (at V1 Ser182) to Ala (N. meningitidis)
[41] = biological target: fHbp 1.P10 (N. meningitidis) (UniProt E6MV22)
[42] = biological target: fHbp V1.1 Lys107 to Ala (N. meningitidis)
[43] = biological target: fHbp V3.28 Leu (at V1 Leu156) to Ala (N. meningitidis)
[44] = biological target: fHbp V2.21 Glu (at V1 Glu109) to Ala (N. meningitidis)
[45] = biological target: fHbp V1.1 His248 to Ala (N. meningitidis)
[46] = biological target: fHbp V3.28 Gln (at V1 Lys191) to Ala (N. meningitidis)
[47] = biological target: fHbp V1.1 Asp262 to Ala (N. meningitidis)
[48] = biological target: fHbp V1.1 Lys264 to Ala (N. meningitidis)

Chain of CFH67, CCP domains 6 and 7 of complement factor H (P08603 321-443): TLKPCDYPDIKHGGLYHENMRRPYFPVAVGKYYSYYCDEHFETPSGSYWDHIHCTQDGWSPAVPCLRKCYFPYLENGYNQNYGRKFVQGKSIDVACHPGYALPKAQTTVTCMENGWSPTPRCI

“CFHR3_(12), the first two (N-terminal) CCP domains of complement factor H-related 3 (from UniProt Q02985 19-330) (domain or fragment)” was tested, and the Kd [1] was 16.3 nM, the Kd [2] was 5.26 nM and the Kd [3] was 2.58 nM. It also gave a Kd [4] of 36.3 nM, a Kd [5] of 0.434 nM and a Kd [6] of 3.21 nM. It also gave a Kd [7] of 6.98 nM, a Kd [8] of 3.24 nM and a Kd [9] of 9.65 nM. The Kd [10] was 311 nM, the Kd [11] was 17.8 nM and the Kd [12] was 4.26 nM. For the same substance, the Kd [13] was 1.64 nM, the Kd [14] was 3.03 nM and the Kd [15] was 4.35 nM. It also gave a Kd [16] of 3.47 nM, a Kd [17] of 41.1 nM and a Kd [18] of 17.9 nM. For the same substance, the Kd [19] was 8.22 nM, the Kd [20] was 4.88 nM and the Kd [21] was 2.13 nM. It also gave a Kd [22] of 6540 nM, a Kd [23] of 0.292 nM and a Kd [24] of 4.45 nM. It also gave a Kd [25] of 3.39 nM, a Kd [26] of 1270 nM and a Kd [27] of 26.4 nM. It also gave a Kd [28] of 29.2 nM, a Kd [29] of 43.5 nM and a Kd [30] of 7.86 nM. The Kd [31] was 0.605 nM, the Kd [32] was 1.7 nM and the Kd [33] was 724 nM. The Kd [34] was 160 nM, the Kd [35] was 80 nM and the Kd [36] was 82.6 nM. The Kd [37] was 2.57 nM, the Kd [38] was 78.5 nM and the Kd [39] was 54.3 nM. It also gave a Kd [40] of 5.84 nM, a Kd [41] of 119 nM and a Kd [42] of 174 nM. For the same substance, the Kd [43] was 51.9 nM, the Kd [44] was 4.62 nM and the Kd [45] was 82.5 nM. For the same substance, the Kd [46] was 3.05 nM, the Kd [47] was 89.2 nM and the Kd [48] was 589 nM.
“CFH67, CCP domains 6 and 7 of complement factor H (from UniProt P08603 321-443) (domain or fragment)” gave a Kd [1] of 19.2 nM, a Kd [2] of 5.99 nM and a Kd [3] of 2.13 nM. For the same substance, the Kd [4] was 30.3 nM, the Kd [5] was 0.621 nM and the Kd [6] was 3.71 nM. For the same substance, the Kd [7] was 9.91 nM, the Kd [8] was 3.06 nM and the Kd [9] was 7.66 nM. The Kd [10] was 60.5 nM, the Kd [11] was 23.9 nM and the Kd [12] was 3.82 nM. For the same substance, the Kd [13] was 0.514 nM, the Kd [14] was 4.14 nM and the Kd [15] was 37.5 nM. The Kd [16] was 2.33 nM, the Kd [17] was 4.87 nM and the Kd [18] was 33.6 nM. For the same substance, the Kd [19] was 3.58 nM, the Kd [20] was 5.96 nM and the Kd [21] was 1.63 nM. The Kd [22] was 9.28 nM, the Kd [23] was 0.201 nM and the Kd [24] was 4.29 nM. The Kd [25] was 2.67 nM, the Kd [26] was 8.06 nM and the Kd [27] was 2.28 nM. For the same substance, the Kd [28] was 21.1 nM, the Kd [29] was 11.3 nM and the Kd [30] was 8.49 nM. The Kd [31] was 0.231 nM, the Kd [32] was 1.99 nM and the Kd [33] was 7.45 nM. For the same substance, the Kd [34] was 5.04 nM, the Kd [35] was 10.5 nM and the Kd [36] was 3.34 nM. The Kd [37] was 1.45 nM, the Kd [38] was 3.09 nM and the Kd [39] was 10.7 nM. For the same substance, the Kd [40] was 7.98 nM, the Kd [41] was 15.2 nM and the Kd [42] was 9.59 nM. For the same substance, the Kd [43] was 28.8 nM, the Kd [44] was 2.34 nM and the Kd [45] was 3.36 nM. It also gave a Kd [46] of 2.43 nM, a Kd [47] of 6.54 nM and a Kd [48] of 12.3 nM.
